# Reference: patent publication US20120135923A1 (IPSEN PHARMA S A S, published 2012)
# Bridge positions count the residues as written; N and C are the ends. Square brackets hold non-standard residues; d marks the D form. Ends that are not written are not given here. 2Nal = N[C@@H](Cc1ccc2ccccc2c1)C(=O)O; Cha = N[C@@H](CC1CCCCC1)C(=O)O; Pen = CC(C)(S)[C@H](N)C(=O)O; Nle = CCCC[C@H](N)C(=O)O; Ahx = NCCCCCC(=O)O; Ava = NCCCCC(=O)O; GABA = NCCCC(=O)O
# B1: Ac-Nle-c(Cys-His-D-Phe-Arg-Trp-Apn-Cys)-NH2 (peptide)
# peptide: Ac-[Nle]CH[dF]RW[Ava]C-NH2
# modifications: disulfide 2-8
# SMILES: CCCC[C@H](NC(C)=O)C(=O)N[C@H]1CSSC[C@@H](C(N)=O)NC(=O)CCCCNC(=O)[C@H](Cc2c[nH]c3ccccc23)NC(=O)[C@H](CCCNC(=N)N)NC(=O)[C@@H](Cc2ccccc2)NC(=O)[C@H](Cc2c[nH]cn2)NC1=O
# B2: Ac-Ile-c(Cys-His-D-Phe-Arg-Trp-Gaba-Cys)-NH2 (peptide)
# peptide: Ac-ICH[dF]RW[GABA]C-NH2
# modifications: disulfide 2-8
# SMILES: CC[C@H](C)[C@H](NC(C)=O)C(=O)N[C@H]1CSSC[C@@H](C(N)=O)NC(=O)CCCNC(=O)[C@H](Cc2c[nH]c3ccccc23)NC(=O)[C@H](CCCNC(=N)N)NC(=O)[C@@H](Cc2ccccc2)NC(=O)[C@H](Cc2c[nH]cn2)NC1=O
# B3: Ac-Val-c(Cys-His-D-Phe-Arg-Trp-Gaba-Cys)-NH2 (peptide)
# peptide: Ac-VCH[dF]RW[GABA]C-NH2
# modifications: disulfide 2-8
# SMILES: CC(=O)N[C@H](C(=O)N[C@H]1CSSC[C@@H](C(N)=O)NC(=O)CCCNC(=O)[C@H](Cc2c[nH]c3ccccc23)NC(=O)[C@H](CCCNC(=N)N)NC(=O)[C@@H](Cc2ccccc2)NC(=O)[C@H](Cc2c[nH]cn2)NC1=O)C(C)C
# B4: Nle-c(Cys-His-D-Phe-Arg-Trp-Apn-Cys)-NH2 (peptide)
# peptide: [Nle]CH[dF]RW[Ava]C-NH2
# modifications: disulfide 2-8; N-terminus assumed
# SMILES: CCCC[C@H](N)C(=O)N[C@H]1CSSC[C@@H](C(N)=O)NC(=O)CCCCNC(=O)[C@H](Cc2c[nH]c3ccccc23)NC(=O)[C@H](CCCNC(=N)N)NC(=O)[C@@H](Cc2ccccc2)NC(=O)[C@H](Cc2c[nH]cn2)NC1=O
# Biological target: T1, hMC1-R (human, UniProt Q01726 1-317)
# T1 construct: whole, on cells; Assayed as membranes of CHO-K1 cells expressing the receptor; also called hMC-R receptor subtype 1; melanocyte-specific receptor (MC1-R)
# T1 sequence (Q01726 whole entry): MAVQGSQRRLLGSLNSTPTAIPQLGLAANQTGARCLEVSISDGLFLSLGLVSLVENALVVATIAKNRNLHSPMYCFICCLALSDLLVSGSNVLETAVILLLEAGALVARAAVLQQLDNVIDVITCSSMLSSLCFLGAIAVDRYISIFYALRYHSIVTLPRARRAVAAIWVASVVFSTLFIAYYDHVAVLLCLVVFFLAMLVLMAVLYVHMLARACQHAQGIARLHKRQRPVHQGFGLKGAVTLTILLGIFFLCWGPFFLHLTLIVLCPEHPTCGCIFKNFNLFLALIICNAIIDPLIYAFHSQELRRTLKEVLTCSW
# Test: ratio Ki hMC1-R / Ki hMC4-R, same assay
# Description: Cellular membranes used for the in vitro receptor binding assays were obtained from transgenic CHO-K1 cells stably expressing hMC-R receptor subtypes 1, 3, 4 or 5. […] The pellets were resuspended in the same buffer and centrifuged at 50,000 g for 10 minutes at approximately 4° C. The washed pellets containing the cellular membranes were stored at approximately −80° C.
# Competitive inhibition of [¹²⁵I](Tyr²)-(Nle⁴-D-Phe⁷)α-MSH ([¹²⁵I]-NDP-α-MSH, Amersham Biosciences®) binding was carried out in polypropylene 96 well plates. Cell membranes (1-10 μg protein/well) prepared as described above were incubated in 50 mM Tris-HCl at pH 7.4 containing 0.2% bovine serum albumin (BSA), 5 mM MgCl₂, 1 mM CaCl₂ and 0.1 mg/mL bacitracin, with increasing concentrations of the test compound and 0.1-0.3 nM […] for approximately 90-120 minutes at approximately 37° C. Bound [¹²⁵I]-NDP-α-MSH ligand was separated from free [¹²⁵I]-NDP-α-MSH by filtration through GF/C glass fiber filter plates (Unifilter®; Packard) presoaked with 0.1% (w/v) polyethylenimine (PEI), using a Packard Filtermate® harvester. Filters were washed three times with 50 mM Tris-HCl at pH 7.4 at a temperature of approximately 0-4° C. and then assayed for radioactivity using a Packard Topcount® scintillation counter. Binding data were analyzed by computer-assisted non-linear regression analysis (XL fit; IDBS).
row,Ki hMC1-R/MC4-R,Binder
1,0.12,Ac-[Cha]CH[dF]RW[GABA]C-NH2 (disulfide 2-8) [Ac-Cha-c(Cys-His-D-Phe-Arg-Trp-Gaba-Cys)-NH2]
2,0.11,B1
3,0.04,"Ac-[Nle]CHFR[dW][GABA]C-NH2 (disulfide 2-8, Phe 4 is the L form here) [Ac-Nle-c(Cys-His-Phe-Arg-D-Trp-Gaba-Cys)-NH2]"
4,0.14,B2
5,0.13,B3
6,0.22,Ac-LCH[dF]RW[GABA]C-NH2 (disulfide 2-8) [Ac-Leu-c(Cys-His-D-Phe-Arg-Trp-Gaba-Cys)-NH2]
7,0.3,Ac-[Nle]CH[dF]RW[GABA][Pen]-NH2 (disulfide 2-8) [Ac-Nle-c(Cys-His-D-Phe-Arg-Trp-Gaba-Pen)-NH2]
8,0.1,[Nle]CH[dF]RW[GABA]C-NH2 (disulfide 2-8) [Nle-c(Cys-His-D-Phe-Arg-Trp-Gaba-Cys)-NH2]
9,0.19,Ac-[2Nal]CH[dF]RW[GABA]C-NH2 (disulfide 2-8) [Ac-2-Nal-c(Cys-His-D-Phe-Arg-Trp-Gaba-Cys)-NH2]
10,0.11,Ac-[Nle]CH[dF]RW[Ahx]C-NH2 (disulfide 2-8) [Ac-Nle-c(Cys-His-D-Phe-Arg-Trp-Ahx-Cys)-NH2]
11,0.21,Ac-[Nle][Pen]H[dF]RW[GABA][Pen]-NH2 (disulfide 2-8) [Ac-Nle-c(Pen-His-D-Phe-Arg-Trp-Gaba-Pen)-NH2]
12,0.1,B4

# Biological target: T2, hMC4-R (human, UniProt P32245 1-332)
# T2 construct: whole, on cells; Assayed as membranes of CHO-K1 cells expressing the receptor; also called hMC-R receptor subtype 4; melanocortin-4 (MC4-R)
# T2 sequence (P32245 whole entry): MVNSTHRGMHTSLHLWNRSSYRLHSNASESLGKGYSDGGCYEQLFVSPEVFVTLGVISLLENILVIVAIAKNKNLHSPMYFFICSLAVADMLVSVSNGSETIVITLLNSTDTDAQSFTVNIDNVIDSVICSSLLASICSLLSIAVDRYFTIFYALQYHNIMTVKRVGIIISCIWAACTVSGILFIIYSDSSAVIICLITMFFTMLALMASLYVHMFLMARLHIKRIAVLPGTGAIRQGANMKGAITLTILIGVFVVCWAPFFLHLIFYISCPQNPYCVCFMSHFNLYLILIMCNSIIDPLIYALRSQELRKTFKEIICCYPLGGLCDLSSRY
# Test: competition with [125I]-NDP-α-MSH, CHO-K1 membranes
row,Ki [nM],Binder
1,0.884,Ac-[Cha]CH[dF]RW[GABA]C-NH2 (disulfide 2-8) [Ac-Cha-c(Cys-His-D-Phe-Arg-Trp-Gaba-Cys)-NH2]
2,0.894,B1
3,138,"Ac-[Nle]CHFR[dW][GABA]C-NH2 (disulfide 2-8, Phe 4 is the L form here) [Ac-Nle-c(Cys-His-Phe-Arg-D-Trp-Gaba-Cys)-NH2]"
4,1.06,B2
5,1.98,B3
6,0.995,Ac-LCH[dF]RW[GABA]C-NH2 (disulfide 2-8) [Ac-Leu-c(Cys-His-D-Phe-Arg-Trp-Gaba-Cys)-NH2]
7,0.43,Ac-[Nle]CH[dF]RW[GABA][Pen]-NH2 (disulfide 2-8) [Ac-Nle-c(Cys-His-D-Phe-Arg-Trp-Gaba-Pen)-NH2]
8,0.47,[Nle]CH[dF]RW[GABA]C-NH2 (disulfide 2-8) [Nle-c(Cys-His-D-Phe-Arg-Trp-Gaba-Cys)-NH2]
9,2.94,Ac-[2Nal]CH[dF]RW[GABA]C-NH2 (disulfide 2-8) [Ac-2-Nal-c(Cys-His-D-Phe-Arg-Trp-Gaba-Cys)-NH2]
10,1.23,Ac-[Nle]CH[dF]RW[Ahx]C-NH2 (disulfide 2-8) [Ac-Nle-c(Cys-His-D-Phe-Arg-Trp-Ahx-Cys)-NH2]
11,3.51,Ac-[Nle][Pen]H[dF]RW[GABA][Pen]-NH2 (disulfide 2-8) [Ac-Nle-c(Pen-His-D-Phe-Arg-Trp-Gaba-Pen)-NH2]
12,0.85,B4

# Biological target: T1, hMC1-R
# Test: as above
row,Ki [nM],Binder
1,0.107,Ac-[Cha]CH[dF]RW[GABA]C-NH2 (disulfide 2-8) [Ac-Cha-c(Cys-His-D-Phe-Arg-Trp-Gaba-Cys)-NH2]
2,0.0951,B1
3,5.2,"Ac-[Nle]CHFR[dW][GABA]C-NH2 (disulfide 2-8, Phe 4 is the L form here) [Ac-Nle-c(Cys-His-Phe-Arg-D-Trp-Gaba-Cys)-NH2]"
4,0.148,B2
5,0.256,B3
6,0.216,Ac-LCH[dF]RW[GABA]C-NH2 (disulfide 2-8) [Ac-Leu-c(Cys-His-D-Phe-Arg-Trp-Gaba-Cys)-NH2]
7,0.12,Ac-[Nle]CH[dF]RW[GABA][Pen]-NH2 (disulfide 2-8) [Ac-Nle-c(Cys-His-D-Phe-Arg-Trp-Gaba-Pen)-NH2]
8,0.05,[Nle]CH[dF]RW[GABA]C-NH2 (disulfide 2-8) [Nle-c(Cys-His-D-Phe-Arg-Trp-Gaba-Cys)-NH2]
9,0.56,Ac-[2Nal]CH[dF]RW[GABA]C-NH2 (disulfide 2-8) [Ac-2-Nal-c(Cys-His-D-Phe-Arg-Trp-Gaba-Cys)-NH2]
10,0.0132,Ac-[Nle]CH[dF]RW[Ahx]C-NH2 (disulfide 2-8) [Ac-Nle-c(Cys-His-D-Phe-Arg-Trp-Ahx-Cys)-NH2]
11,0.744,Ac-[Nle][Pen]H[dF]RW[GABA][Pen]-NH2 (disulfide 2-8) [Ac-Nle-c(Pen-His-D-Phe-Arg-Trp-Gaba-Pen)-NH2]
12,0.07,B4

# Biological target: T3, hMC5-R (human, UniProt P33032 1-325)
# T3 construct: whole, on cells; Assayed as membranes of CHO-K1 cells expressing the receptor; also called hMC-R receptor subtype 5; melanocortin-5 receptor (MC5-R)
# T3 sequence (P33032 whole entry): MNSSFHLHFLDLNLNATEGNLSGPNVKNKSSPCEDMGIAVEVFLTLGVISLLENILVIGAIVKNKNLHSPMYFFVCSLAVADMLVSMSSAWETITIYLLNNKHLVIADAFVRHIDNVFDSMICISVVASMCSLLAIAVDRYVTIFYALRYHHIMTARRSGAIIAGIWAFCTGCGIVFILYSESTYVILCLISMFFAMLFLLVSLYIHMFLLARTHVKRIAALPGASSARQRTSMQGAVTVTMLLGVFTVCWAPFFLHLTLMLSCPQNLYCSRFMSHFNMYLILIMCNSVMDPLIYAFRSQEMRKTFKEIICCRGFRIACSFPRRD
# Test: as above
row,Ki [nM],Binder
1,0.354,Ac-[Cha]CH[dF]RW[GABA]C-NH2 (disulfide 2-8) [Ac-Cha-c(Cys-His-D-Phe-Arg-Trp-Gaba-Cys)-NH2]
2,13.4,B1
3,20.3,"Ac-[Nle]CHFR[dW][GABA]C-NH2 (disulfide 2-8, Phe 4 is the L form here) [Ac-Nle-c(Cys-His-Phe-Arg-D-Trp-Gaba-Cys)-NH2]"
4,0.423,B2
5,0.864,B3
6,0.486,Ac-LCH[dF]RW[GABA]C-NH2 (disulfide 2-8) [Ac-Leu-c(Cys-His-D-Phe-Arg-Trp-Gaba-Cys)-NH2]
7,0.42,Ac-[Nle]CH[dF]RW[GABA][Pen]-NH2 (disulfide 2-8) [Ac-Nle-c(Cys-His-D-Phe-Arg-Trp-Gaba-Pen)-NH2]
8,0.2,[Nle]CH[dF]RW[GABA]C-NH2 (disulfide 2-8) [Nle-c(Cys-His-D-Phe-Arg-Trp-Gaba-Cys)-NH2]
9,2.73,Ac-[2Nal]CH[dF]RW[GABA]C-NH2 (disulfide 2-8) [Ac-2-Nal-c(Cys-His-D-Phe-Arg-Trp-Gaba-Cys)-NH2]
10,0.359,Ac-[Nle]CH[dF]RW[Ahx]C-NH2 (disulfide 2-8) [Ac-Nle-c(Cys-His-D-Phe-Arg-Trp-Ahx-Cys)-NH2]
11,2.69,Ac-[Nle][Pen]H[dF]RW[GABA][Pen]-NH2 (disulfide 2-8) [Ac-Nle-c(Pen-His-D-Phe-Arg-Trp-Gaba-Pen)-NH2]
12,8.8,B4

# Biological target: T4, hMC3-R (human, UniProt P41968 1-323)
# T4 construct: whole, on cells; Assayed as membranes of CHO-K1 cells expressing the receptor; also called hMC-R receptor subtype 3; melacortin-3 (MC3-R)
# T4 sequence (P41968 whole entry): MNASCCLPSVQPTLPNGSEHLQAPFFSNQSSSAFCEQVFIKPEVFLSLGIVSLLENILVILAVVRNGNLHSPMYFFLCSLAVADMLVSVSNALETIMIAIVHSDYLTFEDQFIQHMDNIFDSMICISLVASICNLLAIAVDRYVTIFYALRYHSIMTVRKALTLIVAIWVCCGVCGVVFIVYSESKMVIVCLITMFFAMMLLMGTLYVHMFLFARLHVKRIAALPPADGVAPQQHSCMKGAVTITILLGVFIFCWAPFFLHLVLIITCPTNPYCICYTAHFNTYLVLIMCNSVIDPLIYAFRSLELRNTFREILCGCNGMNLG
# Test: as above
row,Ki [nM],Binder
1,9.11,Ac-[Cha]CH[dF]RW[GABA]C-NH2 (disulfide 2-8) [Ac-Cha-c(Cys-His-D-Phe-Arg-Trp-Gaba-Cys)-NH2]
2,9.33,B1
3,150,"Ac-[Nle]CHFR[dW][GABA]C-NH2 (disulfide 2-8, Phe 4 is the L form here) [Ac-Nle-c(Cys-His-Phe-Arg-D-Trp-Gaba-Cys)-NH2]"
4,13.9,B2
5,29.9,B3
6,17.4,Ac-LCH[dF]RW[GABA]C-NH2 (disulfide 2-8) [Ac-Leu-c(Cys-His-D-Phe-Arg-Trp-Gaba-Cys)-NH2]
7,10,Ac-[Nle]CH[dF]RW[GABA][Pen]-NH2 (disulfide 2-8) [Ac-Nle-c(Cys-His-D-Phe-Arg-Trp-Gaba-Pen)-NH2]
8,1.3,[Nle]CH[dF]RW[GABA]C-NH2 (disulfide 2-8) [Nle-c(Cys-His-D-Phe-Arg-Trp-Gaba-Cys)-NH2]
9,39.2,Ac-[2Nal]CH[dF]RW[GABA]C-NH2 (disulfide 2-8) [Ac-2-Nal-c(Cys-His-D-Phe-Arg-Trp-Gaba-Cys)-NH2]
10,16.1,Ac-[Nle]CH[dF]RW[Ahx]C-NH2 (disulfide 2-8) [Ac-Nle-c(Cys-His-D-Phe-Arg-Trp-Ahx-Cys)-NH2]
11,178,Ac-[Nle][Pen]H[dF]RW[GABA][Pen]-NH2 (disulfide 2-8) [Ac-Nle-c(Pen-His-D-Phe-Arg-Trp-Gaba-Pen)-NH2]
12,4.1,B4
